As a reminder, the Kd is a measure of binding affinity in units of concentration. Read a low Kd as a tighter complex.

T1: PUF4 RNA-binding domain (Saccharomyces cerevisiae, UniProt P25339 537-888)
T1 sequence: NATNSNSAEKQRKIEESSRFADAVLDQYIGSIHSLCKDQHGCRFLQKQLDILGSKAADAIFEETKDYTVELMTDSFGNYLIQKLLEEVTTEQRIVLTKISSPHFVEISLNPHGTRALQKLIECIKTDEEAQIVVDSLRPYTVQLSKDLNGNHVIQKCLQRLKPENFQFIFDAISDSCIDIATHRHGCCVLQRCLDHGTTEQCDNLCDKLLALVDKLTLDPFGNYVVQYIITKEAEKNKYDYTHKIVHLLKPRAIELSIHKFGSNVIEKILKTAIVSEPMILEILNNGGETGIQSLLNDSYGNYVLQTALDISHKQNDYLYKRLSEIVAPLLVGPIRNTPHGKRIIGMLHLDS

Some results are limits rather than exact numbers.

In the data set the target is T1, PUF4 RNA-binding domain. Briefly: Mg; RNA-MaP; 20 mM Na-HEPES pH 7.4, 30 mM KOAc, 0.75 mM MgCl2, 0.1% Tween-20, 5% glycerol, 0.1 mg/mL BSA, 2 mM DTT; 25 C; 0.0125-409.6 nM protein. The following applies: tags: N-His6-TEV cleaved; C-SNAP kept, Cy3B-labelled; label: tethered on chip by stalled RNA polymerase.
UCUCUUCAUAUAUUAUUAAUUCUCUU (ssRNA) [Id_ii_S1_P5E.3_K5.2_C5.2_[T-1A]_H5.2_A5.1_F5.1_T5.2_[T11A]_[A12T]]: the dissociation constant (Kd) was 424 nM.

Take UCUCUUGCACACUUAUUACCUCUCUU (ssRNA) [Id_ii_S1_P5E.4_K5.3_C5.2_[C-2G]_[T-1C]_H5.3_A5.1_F5.1_T5.2_[T11C]_[A12C]]: the dissociation constant Kd came to 1320 nM.

UCUCUUCAUAUAUUAUUACGUCUCUU (ssRNA) [Id_ii_S1_P5E.3_K5.2_C5.2_[T-1A]_H5.2_A5.1_F5.1_T5.2_[T11C]_[A12G]] showed a Kd of 440 nM.

On to UCUCUUCCUAUAUUAUUAAAUCUCUU (ssRNA) [Id_ii_S1_P5E.3_K5.2_C5.2_[T-1C]_H5.2_A5.1_F5.1_T5.2_[T11A]], for which the Kd was 683 nM.

The molecule UCUCUUCGUAUAUUAUUAAUUCUCUU (ssRNA) [Id_ii_S1_P5E.3_K5.2_C5.2_[T-1G]_H5.2_A5.1_F5.1_T5.2_[T11A]_[A12T]] gave a Kd of 26.5 nM.

Molecule UCUCUUCGUAUAUUAUUAGCUCUCUU (ssRNA) [Id_ii_S1_P5E.3_K5.2_C5.2_[T-1G]_H5.2_A5.1_F5.1_T5.2_[T11G]_[A12C]] displayed a Kd of 25.6 nM.

In turn, UCUCUUCCUAUAUUAUUAAGUCUCUU (ssRNA) [Id_ii_S1_P5E.3_K5.2_C5.2_[T-1C]_H5.2_A5.1_F5.1_T5.2_[T11A]_[A12G]] showed a Kd of 971 nM.

With UCUCUUCAUAUAUUAUUAGGUCUCUU (ssRNA) [Id_ii_S1_P5E.3_K5.2_C5.2_[T-1A]_H5.2_A5.1_F5.1_T5.2_[T11G]_[A12G]], the Kd stood at 488 nM.

Take UCUCUUCAUAUAUUAUUAGCUCUCUU (ssRNA) [Id_ii_S1_P5E.3_K5.2_C5.2_[T-1A]_H5.2_A5.1_F5.1_T5.2_[T11G]_[A12C]]: binding was put at a Kd of 157 nM.

Turning to UCUCUUGCACACUUAUUAUAUCUCUU (ssRNA) [Id_ii_S1_P5E.4_K5.3_C5.2_[C-2G]_[T-1C]_H5.3_A5.1_F5.1_T5.2], binding was put at a Kd of 766 nM.

On to UCUCUUCUUAUAUUAUUAAAUCUCUU (ssRNA) [Id_ii_S1_P5E.3_K5.2_C5.2_H5.2_A5.1_F5.1_T5.2_[T11A]], for which binding was characterised by a dissociation constant (Kd) of 730 nM.

UCUCUUCAUAUAUUAUUACUUCUCUU (ssRNA) [Id_ii_S1_P5E.3_K5.2_C5.2_[T-1A]_H5.2_A5.1_F5.1_T5.2_[T11C]_[A12T]] returned a Kd of 321 nM.

As for UCUCUUGUACACUUAUUAGCUCUCUU (ssRNA) [Id_ii_S1_P5E.4_K5.3_C5.2_[C-2G]_H5.3_A5.1_F5.1_T5.2_[T11G]_[A12C]], the affinity, expressed as Kd, was 5.16 nM.

On to UCUCUUGCACACUUAUUACAUCUCUU (ssRNA) [Id_ii_S1_P5E.4_K5.3_C5.2_[C-2G]_[T-1C]_H5.3_A5.1_F5.1_T5.2_[T11C]], for which the affinity, expressed as Kd, was 1210 nM.

Regarding UCUCUUGCACACUUAUUAUCUCUCUU (ssRNA) [Id_ii_S1_P5E.4_K5.3_C5.2_[C-2G]_[T-1C]_H5.3_A5.1_F5.1_T5.2_[A12C]], binding was characterised by a dissociation constant (Kd) of 1160 nM.

The molecule UCUCUUUGUAUUAGUGUCUCUU (ssRNA) [Ib_S1_P5E.1_K5.1_C5.1_H5.1_A5.1_F5.1_[T8G]_[A10G]_T5.1] returned a Kd of 386 nM.

Regarding UCUCUUCUUAUAUUAUUACCUCUCUU (ssRNA) [Id_ii_S1_P5E.3_K5.2_C5.2_H5.2_A5.1_F5.1_T5.2_[T11C]_[A12C]], the dissociation constant Kd turned out to be 571 nM.

UCUCUUCCUAUAUUAUUAAUUCUCUU (ssRNA) [Id_ii_S1_P5E.3_K5.2_C5.2_[T-1C]_H5.2_A5.1_F5.1_T5.2_[T11A]_[A12T]] showed an equilibrium dissociation constant (Kd) of 779 nM.

Regarding UCUCUUGCACACUUAUUACUUCUCUU (ssRNA) [Id_ii_S1_P5E.4_K5.3_C5.2_[C-2G]_[T-1C]_H5.3_A5.1_F5.1_T5.2_[T11C]_[A12T]], the equilibrium dissociation constant (Kd) came out at 1530 nM.

UCUCUUGUACACUUAUUAAUUCUCUU (ssRNA) [Id_ii_S1_P5E.4_K5.3_C5.2_[C-2G]_H5.3_A5.1_F5.1_T5.2_[T11A]_[A12T]] showed a Kd of 4.75 nM.

UCUCUUCCUAUAUUAUUAACUCUCUU (ssRNA) [Id_ii_S1_P5E.3_K5.2_C5.2_[T-1C]_H5.2_A5.1_F5.1_T5.2_[T11A]_[A12C]] registered a Kd of 620 nM.

In turn, UCUCUUCCUAUAUUAUUAUCUCUCUU (ssRNA) [Id_ii_S1_P5E.3_K5.2_C5.2_[T-1C]_H5.2_A5.1_F5.1_T5.2_[A12C]] had a Kd of 532 nM.

For UCUCUUCCUAUAUUAUUACUUCUCUU (ssRNA) [Id_ii_S1_P5E.3_K5.2_C5.2_[T-1C]_H5.2_A5.1_F5.1_T5.2_[T11C]_[A12T]], the equilibrium dissociation constant (Kd) was found to be 456 nM.

Molecule UCUCUUGCACACUUAUUACGUCUCUU (ssRNA) [Id_ii_S1_P5E.4_K5.3_C5.2_[C-2G]_[T-1C]_H5.3_A5.1_F5.1_T5.2_[T11C]_[A12G]] displayed a Kd of over 2300 nM.

As for UCUCUUCUUAUAUUAUUAGUUCUCUU (ssRNA) [Id_ii_S1_P5E.3_K5.2_C5.2_H5.2_A5.1_F5.1_T5.2_[T11G]_[A12T]], the dissociation constant (Kd) turned out to be 82.2 nM.

In the case of UCUCUUCAUAUAUUAUUAUUUCUCUU (ssRNA) [Id_ii_S1_P5E.3_K5.2_C5.2_[T-1A]_H5.2_A5.1_F5.1_T5.2_[A12T]], binding was put at a Kd of 395 nM.

The molecule UCUCUUGCACACUUAUUAACUCUCUU (ssRNA) [Id_ii_S1_P5E.4_K5.3_C5.2_[C-2G]_[T-1C]_H5.3_A5.1_F5.1_T5.2_[T11A]_[A12C]] displayed an equilibrium dissociation constant (Kd) of 1890 nM.

UCUCUUUGUAUUACUCUCUCUU (ssRNA) [Ib_S1_P5E.1_K5.1_C5.1_H5.1_A5.1_F5.1_[T8C]_[A10C]_T5.1]: the Kd came to 133 nM.

Values taken from publication PMC9352680, “A comprehensive thermodynamic model for RNA binding by the Saccharomyces cerevisiae Pumilio protein PUF4”.
